Data from patent US20150218244A1.

Molecular target: IL-10 receptor (IL-10R) on freshly isolated primary blood monocytes (human) (UniProt Q13651)
Experiment: cell-based or functional assay

Chain of IL-10 receptor (IL-10R) on freshly isolated primary blood monocytes (human) (Q13651 22-578, chain 1 of 2): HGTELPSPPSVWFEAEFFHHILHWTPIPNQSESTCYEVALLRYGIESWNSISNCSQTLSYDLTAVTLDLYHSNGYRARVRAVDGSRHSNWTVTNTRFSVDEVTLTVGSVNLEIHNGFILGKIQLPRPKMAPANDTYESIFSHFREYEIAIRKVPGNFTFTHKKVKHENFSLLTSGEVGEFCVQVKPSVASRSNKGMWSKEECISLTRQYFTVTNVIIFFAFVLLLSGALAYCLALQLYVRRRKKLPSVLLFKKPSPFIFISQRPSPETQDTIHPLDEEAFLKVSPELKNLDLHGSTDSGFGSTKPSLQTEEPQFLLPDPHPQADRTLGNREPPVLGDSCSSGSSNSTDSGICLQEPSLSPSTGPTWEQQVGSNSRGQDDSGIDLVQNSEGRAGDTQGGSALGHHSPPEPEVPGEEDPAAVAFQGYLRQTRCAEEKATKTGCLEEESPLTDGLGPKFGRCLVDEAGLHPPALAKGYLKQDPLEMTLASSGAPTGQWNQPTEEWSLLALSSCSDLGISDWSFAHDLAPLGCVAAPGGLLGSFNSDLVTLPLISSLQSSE
Chain of IL-10 receptor (IL-10R) on freshly isolated primary blood monocytes (human) (Q08334 20-325, chain 2 of 2, further chain): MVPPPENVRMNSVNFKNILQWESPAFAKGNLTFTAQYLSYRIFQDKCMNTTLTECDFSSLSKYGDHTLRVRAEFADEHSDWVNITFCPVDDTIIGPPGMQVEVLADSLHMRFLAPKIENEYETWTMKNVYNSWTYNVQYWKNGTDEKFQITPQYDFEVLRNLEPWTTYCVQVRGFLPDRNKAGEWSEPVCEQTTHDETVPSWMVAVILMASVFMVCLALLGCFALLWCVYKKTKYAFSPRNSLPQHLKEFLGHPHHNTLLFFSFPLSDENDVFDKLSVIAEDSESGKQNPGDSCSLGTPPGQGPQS

EC50 [nM] pSTAT3 induction: 0.017 nM | EC50 [nM] pSTAT3 induction, Donor 1: 0.029 nM | EC50 [nM] pSTAT3 induction, Donor 2: 0.019 nM | EC50 [nM] pSTAT3 induction, Donor 3: 0.021 nM
Substance: recombinant wild type human IL-10 (from UniProt P22301 19-178) (ligand)
